Measured values as given in patent publication US20160193316A1 (priority 1994, published 2016).

Columns and labels:
[1] = target: HLA-A*1101 (Homo sapiens, UniProt P04439, A114D/D185E/E176A/F33Y/L180Q/S129P/T187R); assay: HLA class I peptide binding assay; conditions: Table XVII
[2] = target: T1, HLA-A*0301 (Homo sapiens, UniProt P04439); assay: HLA class I peptide binding assay; conditions: for A*0301 (binding information): Malaria A3 motif peptides, Table XVI; for A*301 (binding data): Malaria A03 supermotif peptides, binding value, no unit given
T1 construct: endogenous in cells; host or cells: GM3107

[3] = target: T2, DRB1*0301 (DR3) (Homo sapiens, UniProt P01903+P01911, A100K/A102G/A103R/A169T/F55Y/I96L/K41T/L162R/M171V/P40S/Q125H/Q178H/Q39Y/R42S/S66N/T106N/T262R/W38E/Y61H); assay: HLA class II peptide binding assay (pH 4.5); conditions: unit not given
T2 construct: endogenous in cells; host or cells: MAT

[4] = target: T3, DRB1*0101 (DR1) (Homo sapiens, UniProt P01903+P01911, A100R/D57E/F55L/F60I/F76Y/I96L/L162R/M171V/P40L/Q125E/R42F/V115G/Y59C); assay: HLA class II peptide binding assay; conditions: for DR1 binding information: DR3a motif peptides, unit not given, exemplary 15-mer containing the core sequence; for DR1 binding data: Table XIXb, Malaria Super Motif Peptides With Binding Data
T3 construct: endogenous in cells; host or cells: LG2

[5] = target: T4, DRB1*0701 (DR7) (Homo sapiens, UniProt P01903+P01911, A100R/A102G/A103Q/D57E/D86V/E43K/F76Y/K127E/L162R/M171V/P40G/Q125H/Q99D/R33Q/R42Y/R54Q/S133A/S66F/T210M/V115G/Y107V/Y59L/Y89S); assay: biochemical; format: binding
T4 construct: endogenous in cells; host or cells: Pitout

[6] = target: T5, DRB4*0101 (DRw53) (Homo sapiens, UniProt P01903+P13762, G164S); assay: HLA class II peptide binding assay (pH 5.0); conditions: for DRw53 binding information: DR3a motif peptides, unit not given, exemplary 15-mer containing the core sequence; for DRw53 binding data: Table XIXb
T5 construct: expressed in transfected cells; host or cells: L257.6 (fibroblasts)

[7] = target: T6, DRB1*1201 (DR5w12) (Homo sapiens, UniProt P01903+P01911, A100R/A169T/D57E/D86V/F55L/H45Y/K41T/L162R/M171V/P40S/Q125H/Q178H/Q39Y/Q99D/R42G/S66L/T262R/V114A/V67L/W38E/Y59H/Y61H/Y89S); assay: HLA class II peptide binding assay; conditions: for DR5w12 binding information: DR3a motif peptides, unit not given, exemplary 15-mer containing the core sequence; for DR5w12 binding data: Table XIXb
T6 construct: endogenous in cells; host or cells: Herluf

[8] = target: T7, DRB5*0101 (DR2w2β2) (Homo sapiens, UniProt P01903+Q30154); format: binding
T7 construct: expressed in transfected cells; host or cells: L416.3 (fibroblasts) or GM3107

[9] = target: T8, DRB1*0802 (DR8w2) (Homo sapiens, UniProt P01903+P01911, A100R/A103L/A169T/F76Y/H45Y/I96F/K41T/L162R/M171V/P40S/Q125H/Q178H/Q39Y/Q99D/R218S/R42G/S66Y/V115G/W38E); assay: biochemical; format: binding
T8 construct: endogenous in cells; host or cells: OLL

[10] = target: T9, DRB1*0405 (DR4w15) (Homo sapiens, UniProt P01903+P01911, A100R/A169T/D86S/F76Y/I96L/K127E/L162R/M171V/N62H/P40V/Q125Y/R42H/S133A/S149N/S66Y/V115G/V209L/W38E); assay: HLA class II peptide binding assay; conditions: for DR4w15 binding information: DR3a motif peptides, unit not given, exemplary 15-mer containing the core sequence; for DR4w15 binding data: Table XIXb
T9 construct: endogenous in cells; host or cells: KT3

[11] = target: T10, DRB1*1101 (DR5w11) (Homo sapiens, UniProt P01903+P01911, A100R/A169T/A87E/I96F/K41T/L162R/M171V/P40S/Q125H/Q178H/Q39Y/Q99D/R42S/S66Y/T262R/V115G/W38E); assay: biochemical; format: binding
T10 construct: endogenous in cells; host or cells: Sweig

[12] = target: T11, DRB1*0401 (DR4w4) (Homo sapiens, UniProt P01903+P01911, A100K/A169T/F76Y/I96L/K127E/L162R/M171V/N62H/P40V/Q125Y/R42H/S133A/S149N/S66Y/V115G/V209L/W38E); assay: HLA class II peptide binding assay; conditions: for DR4w4 binding information: DR3a motif peptides, unit not given, exemplary 15-mer containing the core sequence; for DR4w4 binding data: Table XIXb
T11 construct: endogenous in cells; host or cells: Preiss

[13] = malaria A11 motif peptides, binding value unit not given
[14] = Malaria A11 motif peptides, HLA-A*1101 binding value, unit not given
[15] = Malaria A11 motif peptides, binding value for HLA-A*1101, unit not given
[16] = HLA-A*0301 binding value, unit not given
[17] = DR3a motif peptides, exemplary 15-mer containing the core sequence

T3 sequence (P01903 26-254 partner, other chains not shown): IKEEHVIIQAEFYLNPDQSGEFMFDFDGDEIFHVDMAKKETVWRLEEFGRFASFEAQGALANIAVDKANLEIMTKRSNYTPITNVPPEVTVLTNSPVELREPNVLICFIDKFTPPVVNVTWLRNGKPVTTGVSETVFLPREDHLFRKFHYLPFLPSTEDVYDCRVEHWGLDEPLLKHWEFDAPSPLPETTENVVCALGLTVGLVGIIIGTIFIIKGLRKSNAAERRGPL
T11 sequence (P01903 26-254 partner, other chains not shown): as above
T10 sequence (P01903 26-254, other chains not shown): as the sequence (P01903 26-254 partner, other chains not shown) above

## CCKGIRSRKR
[1]; [13]
  A*1101 binding information: 0.0002

## CSVTCGKGTR
[2]; binding value to HLA-A*0301, unit not given
  A*0301 (binding information): 0.0002
[2]
  A*301 (binding data): 0.0002
[1]; [13]
  A*1101 binding information: 0.0002

## DGNNEDNEX
[1]; [14]
  A*1101 binding information: 0.0002

## EDMCYFMK
[1]; [15]
  A*1101 binding information: 0.0003

## EMADCTNK
[1]; [14]
  A*1101 binding information: 0.0002

## ESITINVEGR
[1]; [15]
  A*1101 binding information: 0.0002

## FDEILGEEDK
[1]; [13]
  A*1101 binding information: 0.0002

## FLKENKLNK
[2]
  A*301 (binding data): 0.0260
[2]; [16]
  A*0301 (binding information): 0.0260
[1]; [15]
  A*1101 binding information: 0.0005
[3]; Malaria DR3b motif peptides
  DR3 binding information: 0.0950

## FVEALFQEY
[1]; [14]
  A*1101 binding information: 0.0003

## GLVLYNIEK
[1]; [14]
  A*1101 binding information: 0.0055

## HORNNENRSY
[1]; [13]
  A*1101 binding information: 0.0002

## IFLKENIQNK
[1]; [15]
  A*1101 binding information: 0.0002

## INRENANQL
[4]
  DR1 binding information: 0.0770
[5]
  DR7 binding information: -0.0003
[6]
  DRw53 binding information: 0.0096
[7]
  DR5w12 binding information: 0.0001
[8]
  DR2w2β2 binding information: 0.0015
[9]
  DR8w2 binding information: -0.0003
[10]
  DR4w15 binding information: 0.0010
[11]
  DR5w11 binding information: -0.0004
[3]; [17]
  DR3 binding information: 0.0092
[12]
  DR4w4 binding information: 0.0011

## IVDELSEDI
[4]
  DR1 binding information: 0.0001
[5]
  DR7 binding information: -0.0003
[6]
  DRw53 binding information: 0.0290
[7]
  DR5w12 binding information: 0.0001
[8]
  DR2w2β2 binding information: -0.0005
[9]
  DR8w2 binding information: -0.0003
[10]
  DR4w15 binding information: 0.0017
[11]
  DR5w11 binding information: -0.0002
[3]; [17]
  DR3 binding information: -0.0041
[12]
  DR4w4 binding information: 0.0027

## KGKKYEKIK
[2]; [16]
  A*0301 (binding information): 0.0002
[1]; [15]
  A*1101 binding information: 0.0002

## KSLYDEHIIK
[1]; [15]
  A*1101 binding information: 0.0340

## LALLACAGL
[4]
  DR1 binding data: 0.0018
[5]
  DR7 binding data: 0.0009
[6]
  DRw53 binding data: -0.0005
[7]
  DR5w12 binding data: 0.0051
[8]
  DR2w2β2 binding data: 0.0013
[9]
  DR8w2 binding data: 0.0003
[10]
  DR4w15 binding data: -0.0014
[11]
  DR5w11 binding data: -0.0002
[12]
  DR4w4 binding data: -0.0007

## LAMKLIQQL
[4]
  DR1 binding data: 0.0015
[5]
  DR7 binding data: 0.0770
[6]
  DRw53 binding data: 0.0350
[7]
  DR5w12 binding data: 0.1300
[8]
  DR2w2β2 binding data: -0.0006
[9]
  DR8w2 binding data: 0.0400
[10]
  DR4w15 binding data: 0.0013
[11]
  DR5w11 binding data: 0.0002
[12]
  DR4w4 binding data: 0.0023

## LERTKASKE
[5]
  DR7 binding data: 0.0010
[6]
  DRw53 binding data: -0.0005
[9]
  DR8w2 binding data: -0.0003
